Patent publication US20210403595 (published 2021)
Residue numbers refer to the chain shown, from its start.

B1: BSPSMA/CD3-003 CD3 arm (antibody, V domains shown)
VH: EVQLVESGGGLVQPGRSLRLSCAASGFTFDDYSMHWVRQAPGKGLEWVSGISWNSGSKGYADSVKGRFTISRDNAKNSLYLQMNSLRAEDTALYYCAKYGSGYGKFYHYGLDVWGQGTTVTVSS
VL: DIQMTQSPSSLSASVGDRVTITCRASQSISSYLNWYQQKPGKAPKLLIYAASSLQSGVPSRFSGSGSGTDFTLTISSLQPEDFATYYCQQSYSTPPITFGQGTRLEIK
B2: BSPSMA/CD3-1700 CD3 arm (antibody, V domains shown)
VH: B1 VH with H108Y, L111M
VL: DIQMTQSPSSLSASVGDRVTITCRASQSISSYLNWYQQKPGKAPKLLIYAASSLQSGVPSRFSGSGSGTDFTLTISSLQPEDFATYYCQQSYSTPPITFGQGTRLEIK
B3: BSPSMA/CD3-1400 CD3 arm (antibody, V domains shown)
VH: B1 VH with K58I, L111M
VL: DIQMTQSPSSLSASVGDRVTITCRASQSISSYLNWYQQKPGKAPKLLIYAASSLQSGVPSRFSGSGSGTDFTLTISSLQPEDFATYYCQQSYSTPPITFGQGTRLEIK
B4: BSPSMA/CD3-800 CD3 arm (antibody, V domains shown)
VH: B1 VH with K58I
VL: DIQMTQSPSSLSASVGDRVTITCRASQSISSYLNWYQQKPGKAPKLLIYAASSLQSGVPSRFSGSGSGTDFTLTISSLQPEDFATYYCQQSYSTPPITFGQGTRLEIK
B5: BSPSMA/CD3-005 CD3 arm (antibody, V domains shown)
VH: B1 VH with K58I, H108Y, L111M
VL: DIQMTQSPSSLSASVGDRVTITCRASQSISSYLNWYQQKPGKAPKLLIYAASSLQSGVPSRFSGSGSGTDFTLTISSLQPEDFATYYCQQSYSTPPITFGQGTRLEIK
B6: BSPSMA/CD3-1900 CD3 arm (antibody, V domains shown)
VH: B1 VH with K58I, Y99D, L111M
VL: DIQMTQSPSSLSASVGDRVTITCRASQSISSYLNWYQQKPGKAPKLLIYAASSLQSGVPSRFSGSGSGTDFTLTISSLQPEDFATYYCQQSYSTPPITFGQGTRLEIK
B7: BSPSMA/CD3-900 CD3 arm (antibody, V domains shown)
VH: B1 VH with Y99D
VL: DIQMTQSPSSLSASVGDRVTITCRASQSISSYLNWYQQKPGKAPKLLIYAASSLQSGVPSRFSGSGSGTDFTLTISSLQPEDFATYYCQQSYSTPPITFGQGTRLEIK
B8: BSPSMA/CD3-2100 CD3 arm (antibody, V domains shown)
VH: B1 VH with Y99D, H108Y, L111M
VL: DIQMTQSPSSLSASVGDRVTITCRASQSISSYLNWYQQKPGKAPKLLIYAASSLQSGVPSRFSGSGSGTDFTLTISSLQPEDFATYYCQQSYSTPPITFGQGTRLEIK
B9: BSPSMA/CD3-1600 CD3 arm (antibody, V domains shown)
VH: B1 VH with Y99D, L111M
VL: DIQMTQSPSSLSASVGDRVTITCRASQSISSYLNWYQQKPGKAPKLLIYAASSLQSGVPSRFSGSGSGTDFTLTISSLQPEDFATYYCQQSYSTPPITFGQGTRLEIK
B10: BSPSMA/CD3-1200 CD3 arm (antibody, V domains shown)
VH: B1 VH with K58I, Y99D
VL: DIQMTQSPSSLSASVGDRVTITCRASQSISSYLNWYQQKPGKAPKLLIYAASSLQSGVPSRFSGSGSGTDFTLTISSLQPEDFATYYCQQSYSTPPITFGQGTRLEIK
B11: BSPSMA/CD3-1000 CD3 arm (antibody, V domains shown)
VH: B1 VH with H108Y
VL: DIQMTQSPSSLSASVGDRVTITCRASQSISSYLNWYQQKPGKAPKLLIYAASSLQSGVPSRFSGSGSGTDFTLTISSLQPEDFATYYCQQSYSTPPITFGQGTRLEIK
B12: BSPSMA/CD3-1500 CD3 arm (antibody, V domains shown)
VH: B1 VH with Y99D, H108Y
VL: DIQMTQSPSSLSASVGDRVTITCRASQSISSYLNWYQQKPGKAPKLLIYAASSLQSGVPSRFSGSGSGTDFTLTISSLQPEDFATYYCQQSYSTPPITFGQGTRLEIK
B13: BSPSMA/CD3-1400 PSMA arm (antibody, V domains shown)
VH: QVQLVESGGGVVQPGRSLRLSCAASGFTFSSYGMHWVRQAPGKGLEWVAVISYAGNNKYYADSVKGRFTVSRDNSKKTLYLQMNSLRSEDTAVYYCAKDSYYDFLTDPDVLDIWGQGTMVTVSS
VL: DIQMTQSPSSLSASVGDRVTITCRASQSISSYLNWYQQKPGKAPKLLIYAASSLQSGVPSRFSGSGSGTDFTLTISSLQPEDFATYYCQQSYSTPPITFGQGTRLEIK
B14: BSPSMA/CD3-1500 PSMA arm (antibody, V domains shown)
VH: B13 VH
VL: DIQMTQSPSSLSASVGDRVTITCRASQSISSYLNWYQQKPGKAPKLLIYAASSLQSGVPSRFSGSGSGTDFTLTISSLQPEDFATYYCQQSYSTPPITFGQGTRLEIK
B15: BSPSMA/CD3-1800 PSMA arm (antibody, V domains shown)
VH: B13 VH
VL: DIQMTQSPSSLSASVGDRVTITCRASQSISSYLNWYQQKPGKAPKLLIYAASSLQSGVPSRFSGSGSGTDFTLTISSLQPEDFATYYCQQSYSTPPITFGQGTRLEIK
B16: BSPSMA/CD3-004 PSMA arm (antibody, V domains shown)
VH: B13 VH
VL: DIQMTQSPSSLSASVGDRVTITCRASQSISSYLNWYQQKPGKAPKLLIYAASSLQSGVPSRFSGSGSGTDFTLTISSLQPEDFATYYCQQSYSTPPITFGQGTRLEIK
B17: BSPSMA/CD3-200 PSMA arm (antibody, V domains shown)
VH: B13 VH
VL: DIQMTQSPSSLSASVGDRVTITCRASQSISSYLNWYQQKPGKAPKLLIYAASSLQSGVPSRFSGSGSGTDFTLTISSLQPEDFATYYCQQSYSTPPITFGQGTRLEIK
B18: BSPSMA/CD3-1200 PSMA arm (antibody, V domains shown)
VH: B13 VH
VL: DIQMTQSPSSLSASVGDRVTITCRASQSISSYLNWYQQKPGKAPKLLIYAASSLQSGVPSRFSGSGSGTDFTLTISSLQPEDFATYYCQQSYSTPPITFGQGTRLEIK
B19: BSPSMA/CD3-800 PSMA arm (antibody, V domains shown)
VH: B13 VH
VL: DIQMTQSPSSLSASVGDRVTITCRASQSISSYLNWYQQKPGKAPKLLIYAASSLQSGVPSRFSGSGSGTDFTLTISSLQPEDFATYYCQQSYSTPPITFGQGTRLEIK
B20: BSPSMA/CD3-900 PSMA arm (antibody, V domains shown)
VH: B13 VH
VL: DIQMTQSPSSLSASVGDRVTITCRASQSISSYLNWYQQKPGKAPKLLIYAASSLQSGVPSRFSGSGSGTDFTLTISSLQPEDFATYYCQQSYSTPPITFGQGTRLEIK
B21: BSPSMA/CD3-1100 PSMA arm (antibody, V domains shown)
VH: B13 VH
VL: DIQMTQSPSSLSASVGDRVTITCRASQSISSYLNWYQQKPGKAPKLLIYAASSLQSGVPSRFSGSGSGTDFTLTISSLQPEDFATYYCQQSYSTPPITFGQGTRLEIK
B22: BSPSMA/CD3-2100 PSMA arm (antibody, V domains shown)
VH: B13 VH
VL: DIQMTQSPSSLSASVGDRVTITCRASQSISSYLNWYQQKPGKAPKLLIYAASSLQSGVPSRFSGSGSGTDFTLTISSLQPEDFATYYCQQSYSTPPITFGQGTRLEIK
B23: BSPSMA/CD3-300 PSMA arm (antibody, V domains shown)
VH: B13 VH
VL: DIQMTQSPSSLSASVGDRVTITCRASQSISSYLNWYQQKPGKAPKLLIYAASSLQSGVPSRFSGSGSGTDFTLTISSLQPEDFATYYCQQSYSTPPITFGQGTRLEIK
B24: BSPSMA/CD3-1700 PSMA arm (antibody, V domains shown)
VH: B13 VH
VL: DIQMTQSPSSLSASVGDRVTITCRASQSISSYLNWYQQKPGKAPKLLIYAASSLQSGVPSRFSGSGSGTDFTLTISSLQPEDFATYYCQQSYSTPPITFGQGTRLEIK
B25: BSPSMA/CD3-1900 PSMA arm (antibody, V domains shown)
VH: B13 VH
VL: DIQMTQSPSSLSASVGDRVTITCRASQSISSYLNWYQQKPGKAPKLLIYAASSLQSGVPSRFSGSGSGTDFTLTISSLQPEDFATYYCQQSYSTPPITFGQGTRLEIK
B26: BSPSMA/CD3-003 PSMA arm (antibody, V domains shown)
VH: B13 VH
VL: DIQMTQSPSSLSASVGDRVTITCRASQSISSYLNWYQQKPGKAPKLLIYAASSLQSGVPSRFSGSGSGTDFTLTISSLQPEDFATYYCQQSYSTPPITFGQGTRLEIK
B27: BSPSMA/CD3-1600 PSMA arm (antibody, V domains shown)
VH: B13 VH
VL: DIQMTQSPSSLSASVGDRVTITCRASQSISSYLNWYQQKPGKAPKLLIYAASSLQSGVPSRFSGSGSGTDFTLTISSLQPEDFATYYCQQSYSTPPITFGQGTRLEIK
B28: BSPSMA/CD3-005 PSMA arm (antibody, V domains shown)
VH: B13 VH
VL: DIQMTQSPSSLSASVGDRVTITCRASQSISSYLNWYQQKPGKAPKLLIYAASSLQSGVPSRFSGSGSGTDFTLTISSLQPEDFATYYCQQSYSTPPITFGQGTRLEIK
B29: BSPSMA/CD3-1000 PSMA arm (antibody, V domains shown)
VH: B13 VH
VL: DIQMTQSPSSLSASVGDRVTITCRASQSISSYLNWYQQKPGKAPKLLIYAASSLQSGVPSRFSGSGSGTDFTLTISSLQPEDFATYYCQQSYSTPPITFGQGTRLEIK
B30: BSPSMA/CD3-1300 PSMA arm (antibody, V domains shown)
VH: B13 VH
VL: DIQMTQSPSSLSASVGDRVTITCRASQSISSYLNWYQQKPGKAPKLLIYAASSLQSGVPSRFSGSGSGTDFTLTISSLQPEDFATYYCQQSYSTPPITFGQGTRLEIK
B31: BSPSMA/CD3-400 PSMA arm (antibody, V domains shown)
VH: B13 VH
VL: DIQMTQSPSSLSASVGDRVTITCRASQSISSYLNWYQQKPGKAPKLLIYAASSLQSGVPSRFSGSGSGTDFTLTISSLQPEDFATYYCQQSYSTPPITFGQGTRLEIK
B32: BSPSMA/CD3-001 CD3 arm (antibody, V domains shown)
VH: EVQLVESGGGLVQPGRSLRLSCVASGFTFADFTMHWVRQAPGKGLEWVSGISWNSNSIDYADSVKGRFTISRDNAKKSLFLQMSSLRAEDTALYYCVKDRSGYSRFYYGMDVWGQGTTVTVSS
VL: EIVMTQSPATLSVSPGERAILSCRASQNINSNLAWYQQKPGQAPRLLIYGASTRATGVPARFSGSGSGTEFTLTIRSLQSEDFAVYYCQQYYNWPITFGHGTRLEIK
B33: H1H5758B (antibody, V domains shown)
VH: EVQLVESGGGVVQPGRSLRLSCAASGFTFSSYGMHWVRQAPGKGLEWVTVILHDGSNRYYADSVKGRFTISRDNSKNTLYLQMNILRAEDTAVYYCTKGAMVRGVPYNHYYGMDVWGQGTTVTVSS
VL: DIVMTQSPSSLSASVGDRVTITCRASQGIRNDLGWYQQKPGKAPKRLIYAASNLQSGVPSRFSGSGSGTEFTLTISSLQPEDFATYYCLQHNSYPYTFGQGTKLEIKR
B34: H1H5786B (antibody, V domains shown)
VH: QVQLVESGAEVKKPGASVKVSCKTSGYTFTGYYMHWIRQAPGQGLEWMGWINPKSGGTNYAQKFQGRVTMTRDTSISTAYMELSRLRSDDMAVYYCARMGDGAVFDFWGQGTLVTVSS
VL: AIQMTQSPSSLSASVGDRVTITCRASQRISSFLNWYQQKPGKAPKLLIYTASNLQNGVPSRFSGSGSGTDFTLTISSLQPEDFATYYCQQSYRTPLTFGGGTKVEIKR

Molecular target: T1, cynomolgus CD3 on T cells (cynomolgus monkey)
T1 chain: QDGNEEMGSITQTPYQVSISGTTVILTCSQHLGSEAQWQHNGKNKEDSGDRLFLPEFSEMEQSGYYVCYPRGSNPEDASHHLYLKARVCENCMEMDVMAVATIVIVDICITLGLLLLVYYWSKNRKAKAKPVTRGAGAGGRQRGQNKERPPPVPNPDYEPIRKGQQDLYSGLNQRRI
Assay: FACS

Row | EC50 [nM] | Binder
1 | 14.2 | B1
2 | 3350 | B2
3 | 170 | B3
4 | 19.6 | B4
5 | 6140 | B5

These binders were tested against human CD3 epsilon/delta heterodimer, Fc-tagged (human) (assay: SPR, 37C).
Chain of human CD3 epsilon/delta heterodimer, Fc-tagged (human) (chain, as listed by the source mutant, chain 1 of 2): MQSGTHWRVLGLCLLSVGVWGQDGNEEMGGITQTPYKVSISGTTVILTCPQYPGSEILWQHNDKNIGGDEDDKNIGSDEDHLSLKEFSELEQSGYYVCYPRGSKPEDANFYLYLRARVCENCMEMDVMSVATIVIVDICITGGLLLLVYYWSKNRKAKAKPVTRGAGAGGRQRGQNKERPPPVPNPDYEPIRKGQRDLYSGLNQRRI
Chain of human CD3 epsilon/delta heterodimer, Fc-tagged (human) (chain, as listed by the source mutant, chain 2 of 2): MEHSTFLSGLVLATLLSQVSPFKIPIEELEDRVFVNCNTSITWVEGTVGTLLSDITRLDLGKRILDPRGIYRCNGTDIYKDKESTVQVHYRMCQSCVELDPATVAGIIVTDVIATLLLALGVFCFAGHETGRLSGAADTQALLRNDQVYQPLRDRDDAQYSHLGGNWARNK

Row | Kd [nM] | Binder
6 | 115 | B6
7 | 5.78 | B1
8 | 113 | B7
9 | 77.5 | B8
10 | 65.2 | B2
11 | 37.8 | B9
12 | 53.3 | B3
13 | 64.2 | B10
14 | 185 | B11
15 | 19.4 | B4
16 | 334 | B5
17 | 82.9 | B12

What follows are binders tested against human PSMA on cells (human) (assay: FACS, B16F10.9/PSMA).
Chain of human PSMA on cells (human) (A4UU12 whole entry): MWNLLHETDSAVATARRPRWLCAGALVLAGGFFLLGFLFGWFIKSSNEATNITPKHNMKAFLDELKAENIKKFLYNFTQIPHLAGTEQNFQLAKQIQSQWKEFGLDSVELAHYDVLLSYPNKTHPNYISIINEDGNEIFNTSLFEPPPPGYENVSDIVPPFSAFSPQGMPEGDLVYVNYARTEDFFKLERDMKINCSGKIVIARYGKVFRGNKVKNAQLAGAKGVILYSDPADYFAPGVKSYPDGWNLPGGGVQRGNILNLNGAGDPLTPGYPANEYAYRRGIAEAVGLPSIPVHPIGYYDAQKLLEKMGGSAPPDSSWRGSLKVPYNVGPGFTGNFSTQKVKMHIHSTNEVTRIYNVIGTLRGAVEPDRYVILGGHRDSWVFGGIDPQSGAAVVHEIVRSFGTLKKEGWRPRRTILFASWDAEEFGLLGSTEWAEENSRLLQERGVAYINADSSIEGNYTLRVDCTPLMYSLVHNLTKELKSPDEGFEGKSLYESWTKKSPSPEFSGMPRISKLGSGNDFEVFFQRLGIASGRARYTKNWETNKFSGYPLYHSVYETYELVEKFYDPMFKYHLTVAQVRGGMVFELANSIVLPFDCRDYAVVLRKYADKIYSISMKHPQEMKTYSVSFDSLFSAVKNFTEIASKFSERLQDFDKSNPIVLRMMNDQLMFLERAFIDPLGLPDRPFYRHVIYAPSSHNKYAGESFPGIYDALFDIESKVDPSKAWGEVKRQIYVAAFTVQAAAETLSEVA

Row | EC50 [nM] | Binder
18 | 1.3 | B13
19 | 1.21 | B14
20 | 2.16 | B15
21 | 1.31 | B16
22 | 1.88 | B17
23 | 1.16 | B18
24 | 1.31 | B19
25 | 1.43 | B20
26 | 1.03 | B21
27 | 1.14 | B22
28 | 1.9 | B23
29 | 1.34 | B24
30 | 1.35 | B25
31 | 2.26 | B26
32 | 1.03 | B27
33 | 2.09 | B28
34 | 1.19 | B29
35 | 1.25 | B30
36 | 1.72 | B31

Molecular target: T1, cynomolgus CD3 on T cells
Assay: FACS
Remark: another data set of the same source

Row | binding result | Binder
37 | no binding | B6
38 | no binding | B7
39 | no binding | B8
40 | no binding | B9
41 | no binding | B10
42 | no binding | B11
43 | no binding | B12

Each binder was assayed against human CD3 on Jurkat cells (human) (assay: FACS).
Chain of human CD3 on Jurkat cells (human) (chain, as listed by the source, chain 1 of 2): as the sequence (chain, as listed by the source mutant, chain 1 of 2) above
Chain of human CD3 on Jurkat cells (human) (chain, as listed by the source, chain 2 of 2): as the sequence (chain, as listed by the source mutant, chain 2 of 2) above

Row | EC50 [nM] | Binder
44 | 39.1 | B32
45 | 60.7 | B6
46 | 274 | B7
47 | 106 | B8
48 | 200 | B2
49 | 56.8 | B9
50 | 31.9 | B3
51 | 47.2 | B10
52 | 277 | B11
53 | 210 | B5
54 | 93 | B12

Molecular target: human CD3 on Jurkat cells (human)
Assay: FACS
Remark: another data set of the same source

Row | EC50 [nM] | Binder
55 | 1.9 | B33
56 | 1.1 | B34
